Legend:
Experiment in all cases: IF colocalization (JACoP) of VT680 phage with marker, CP mouse pancreas sections
[1] = target: cytokeratin 7 (CK-7) (mouse) (UniProt Q9DCV7)
collagen IIIa (mouse) = collagen IIIa (mouse) (UniProt P08121)
F4/80 (mouse) = F4/80 (mouse) (UniProt Q61549)
CD31 (mouse) = CD31 (mouse) (UniProt Q08481)
[2] = target: carboxypeptidase A1 (CPA1) (mouse) (UniProt Q7TPZ8)
Chain of UniProt Q7TPZ8 (Q7TPZ8 111-419): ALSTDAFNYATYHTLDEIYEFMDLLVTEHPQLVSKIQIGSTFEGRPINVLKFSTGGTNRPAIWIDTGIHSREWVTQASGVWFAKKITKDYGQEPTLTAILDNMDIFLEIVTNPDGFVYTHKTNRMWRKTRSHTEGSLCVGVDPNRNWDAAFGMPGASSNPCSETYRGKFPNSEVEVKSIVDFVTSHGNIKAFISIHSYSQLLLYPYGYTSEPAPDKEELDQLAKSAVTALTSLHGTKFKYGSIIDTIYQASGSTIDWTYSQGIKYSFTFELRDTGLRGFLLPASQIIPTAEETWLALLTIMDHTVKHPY

Chain of UniProt P08121 (P08121 155-1219): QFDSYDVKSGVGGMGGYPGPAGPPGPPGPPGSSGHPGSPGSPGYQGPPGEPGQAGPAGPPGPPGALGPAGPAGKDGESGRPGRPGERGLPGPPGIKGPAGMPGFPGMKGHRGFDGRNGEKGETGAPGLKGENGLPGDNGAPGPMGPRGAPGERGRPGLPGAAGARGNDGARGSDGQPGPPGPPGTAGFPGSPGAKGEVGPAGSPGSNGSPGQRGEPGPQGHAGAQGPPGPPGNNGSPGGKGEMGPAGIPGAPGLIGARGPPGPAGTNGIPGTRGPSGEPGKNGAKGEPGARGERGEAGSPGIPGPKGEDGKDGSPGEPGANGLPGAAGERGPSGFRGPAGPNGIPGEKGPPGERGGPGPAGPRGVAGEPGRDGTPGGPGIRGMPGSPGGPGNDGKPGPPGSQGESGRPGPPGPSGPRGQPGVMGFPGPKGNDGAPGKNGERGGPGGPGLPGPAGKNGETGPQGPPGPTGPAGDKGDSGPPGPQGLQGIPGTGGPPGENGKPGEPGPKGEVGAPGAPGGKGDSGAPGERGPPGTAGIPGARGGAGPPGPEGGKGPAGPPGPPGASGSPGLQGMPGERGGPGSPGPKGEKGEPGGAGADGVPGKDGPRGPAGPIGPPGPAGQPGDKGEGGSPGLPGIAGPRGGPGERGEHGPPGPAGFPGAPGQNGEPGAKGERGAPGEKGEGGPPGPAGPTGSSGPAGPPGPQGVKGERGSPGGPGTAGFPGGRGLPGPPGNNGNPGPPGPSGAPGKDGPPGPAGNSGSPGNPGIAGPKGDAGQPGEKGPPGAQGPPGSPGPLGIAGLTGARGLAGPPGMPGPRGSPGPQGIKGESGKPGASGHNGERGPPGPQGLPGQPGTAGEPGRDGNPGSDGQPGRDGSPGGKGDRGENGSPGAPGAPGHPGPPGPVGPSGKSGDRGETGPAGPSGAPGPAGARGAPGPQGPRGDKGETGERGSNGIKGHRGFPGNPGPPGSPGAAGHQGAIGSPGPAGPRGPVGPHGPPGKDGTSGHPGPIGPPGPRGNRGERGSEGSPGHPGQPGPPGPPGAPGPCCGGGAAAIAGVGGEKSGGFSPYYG
Chain of UniProt Q9DCV7 (Q9DCV7 2-457): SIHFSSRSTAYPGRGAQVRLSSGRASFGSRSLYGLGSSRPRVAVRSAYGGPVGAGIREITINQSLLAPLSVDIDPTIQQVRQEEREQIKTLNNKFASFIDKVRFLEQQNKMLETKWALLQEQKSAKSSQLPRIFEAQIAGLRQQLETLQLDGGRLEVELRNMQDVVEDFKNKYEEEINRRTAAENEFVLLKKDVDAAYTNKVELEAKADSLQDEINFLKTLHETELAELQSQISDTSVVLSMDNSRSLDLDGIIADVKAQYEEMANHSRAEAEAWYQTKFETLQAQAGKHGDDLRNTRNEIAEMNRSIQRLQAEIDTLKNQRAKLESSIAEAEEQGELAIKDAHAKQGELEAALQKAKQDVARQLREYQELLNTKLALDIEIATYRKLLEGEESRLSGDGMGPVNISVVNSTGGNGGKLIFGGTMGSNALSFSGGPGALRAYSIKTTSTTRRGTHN
Chain of UniProt Q61549 (Q61549 28-931): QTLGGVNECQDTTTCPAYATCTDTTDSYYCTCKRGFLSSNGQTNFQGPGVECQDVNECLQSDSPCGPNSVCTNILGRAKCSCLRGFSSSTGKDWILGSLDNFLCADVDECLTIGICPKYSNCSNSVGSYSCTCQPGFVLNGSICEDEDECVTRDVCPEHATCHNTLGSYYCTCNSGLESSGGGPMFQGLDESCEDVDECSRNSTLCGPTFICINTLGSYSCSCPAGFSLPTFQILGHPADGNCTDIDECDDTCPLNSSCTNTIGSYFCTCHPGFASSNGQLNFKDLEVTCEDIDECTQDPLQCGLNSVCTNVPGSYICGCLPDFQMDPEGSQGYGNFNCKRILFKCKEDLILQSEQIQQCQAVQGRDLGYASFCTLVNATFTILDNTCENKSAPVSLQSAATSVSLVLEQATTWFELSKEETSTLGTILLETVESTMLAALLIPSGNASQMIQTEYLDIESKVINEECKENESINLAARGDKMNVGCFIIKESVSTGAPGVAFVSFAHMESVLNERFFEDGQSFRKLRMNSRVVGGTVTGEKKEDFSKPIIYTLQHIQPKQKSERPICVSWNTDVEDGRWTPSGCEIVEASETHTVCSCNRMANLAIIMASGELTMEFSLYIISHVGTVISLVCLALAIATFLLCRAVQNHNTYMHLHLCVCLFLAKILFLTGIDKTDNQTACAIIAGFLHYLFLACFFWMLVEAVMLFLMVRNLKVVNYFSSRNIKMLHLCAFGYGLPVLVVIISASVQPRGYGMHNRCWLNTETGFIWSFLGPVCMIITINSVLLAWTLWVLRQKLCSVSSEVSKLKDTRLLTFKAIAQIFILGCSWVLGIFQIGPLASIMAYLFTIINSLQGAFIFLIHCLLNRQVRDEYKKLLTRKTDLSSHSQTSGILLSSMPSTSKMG
Chain of UniProt Q08481 (Q08481 18-727): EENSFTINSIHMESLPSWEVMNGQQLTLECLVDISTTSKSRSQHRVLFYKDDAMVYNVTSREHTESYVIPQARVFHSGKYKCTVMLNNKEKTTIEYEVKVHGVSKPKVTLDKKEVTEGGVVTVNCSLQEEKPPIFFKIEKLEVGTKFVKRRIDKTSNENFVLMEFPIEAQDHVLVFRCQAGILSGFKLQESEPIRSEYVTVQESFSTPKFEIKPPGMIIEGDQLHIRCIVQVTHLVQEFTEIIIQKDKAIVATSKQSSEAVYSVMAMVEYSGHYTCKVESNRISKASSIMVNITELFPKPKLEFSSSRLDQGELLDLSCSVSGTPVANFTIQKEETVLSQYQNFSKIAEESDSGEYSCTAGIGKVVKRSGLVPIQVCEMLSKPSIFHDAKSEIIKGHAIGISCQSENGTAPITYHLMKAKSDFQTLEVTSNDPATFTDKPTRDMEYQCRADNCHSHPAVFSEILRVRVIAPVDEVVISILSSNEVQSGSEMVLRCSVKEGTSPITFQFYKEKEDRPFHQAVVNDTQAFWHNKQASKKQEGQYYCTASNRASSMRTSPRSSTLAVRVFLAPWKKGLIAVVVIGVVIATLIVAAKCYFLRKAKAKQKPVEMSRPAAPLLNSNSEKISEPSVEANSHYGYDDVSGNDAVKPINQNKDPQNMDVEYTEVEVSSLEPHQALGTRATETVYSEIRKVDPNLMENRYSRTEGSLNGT

For “SLTNSSF (SEQ ID NO: 27) phage clone (peptide)”, the mean Manders' correlation coefficient (MCC), fraction of phage overlapping cell marker [1] was 0.11, the mean Manders' correlation coefficient (MCC), fraction of phage overlapping cell marker (collagen IIIa (mouse)) was 0.33 and the mean Manders' correlation coefficient (MCC), fraction of phage overlapping cell marker (F4/80 (mouse)) was 0.8. For the same substance, the mean Manders' correlation coefficient (MCC), fraction of phage overlapping cell marker (CD31 (mouse)) was 0.13 and the mean Manders' correlation coefficient (MCC), fraction of phage overlapping cell marker [2] was 0.22.

Reference: patent US20240115729A1, “COMPOSITIONS AND METHODS FOR TARGETED ANTIFIBROTIC THERAPY IN CHRONIC PANCREATITIS” (University of Virginia Patent Foundation, priority 2021, published 2024)
